Target: T1, ILF3-GFP full-length (UniProt Q12906 1-894)
T1 sequence: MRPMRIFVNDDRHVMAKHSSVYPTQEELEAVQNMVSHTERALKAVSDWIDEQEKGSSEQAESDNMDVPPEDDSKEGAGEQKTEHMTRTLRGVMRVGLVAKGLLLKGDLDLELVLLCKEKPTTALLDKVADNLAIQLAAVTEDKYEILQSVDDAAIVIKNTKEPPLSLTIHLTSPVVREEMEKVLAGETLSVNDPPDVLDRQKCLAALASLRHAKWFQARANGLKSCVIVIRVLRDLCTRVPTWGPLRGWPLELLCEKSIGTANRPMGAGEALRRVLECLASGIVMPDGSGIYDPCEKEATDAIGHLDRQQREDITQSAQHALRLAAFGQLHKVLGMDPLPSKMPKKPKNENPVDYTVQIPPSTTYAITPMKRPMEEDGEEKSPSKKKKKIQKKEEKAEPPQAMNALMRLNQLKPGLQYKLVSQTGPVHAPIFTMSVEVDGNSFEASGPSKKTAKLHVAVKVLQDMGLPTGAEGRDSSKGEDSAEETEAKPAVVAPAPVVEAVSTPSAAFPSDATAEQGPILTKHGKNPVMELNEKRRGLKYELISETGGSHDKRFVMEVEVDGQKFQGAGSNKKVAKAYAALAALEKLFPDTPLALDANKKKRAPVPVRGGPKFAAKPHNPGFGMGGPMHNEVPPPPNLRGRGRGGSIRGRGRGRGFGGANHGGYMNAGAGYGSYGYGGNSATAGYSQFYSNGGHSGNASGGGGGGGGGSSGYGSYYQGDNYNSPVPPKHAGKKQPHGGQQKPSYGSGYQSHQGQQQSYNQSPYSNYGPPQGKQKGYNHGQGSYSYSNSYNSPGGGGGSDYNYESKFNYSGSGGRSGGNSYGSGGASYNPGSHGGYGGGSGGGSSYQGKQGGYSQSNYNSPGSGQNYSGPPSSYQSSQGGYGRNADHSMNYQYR
Assay: MST; MST: 50 nM His-ILF3-GFP, oligo 0.4 nM-5 uM, 25 mM Tris-HCl pH 7.5, 100 mM NaCl, room temperature
Settings: protein: recombinant, tags: His, blunt

B1: mutTERRA RNA:DNA hybrid (UUAGCC) (DNA:RNA)
RNA: AGGGUUAGCCUUAGCCUUAGCC
DNA: GGCTAAGGCTAAGGCTAACCCT
binding result: no binding

Source: publication PMC11214836, “ILF3 safeguards telomeres from aberrant homologous recombination as a telomeric R-loop reader”
